Assay results: patent CN117460833A (dated 2024)
Numbering of substitutions follows the chain as printed.

B1: s10 (RO6D8-s10) 抗ROR1单克隆抗体 (antibody, V domains shown)
VH: QVQLVQSGAEVKKPGASVKVSCKASGYTFTNYYMHWVRQAPGQGLEWMGIINPSGGSTSYAQKFQGRVTMTRDTSTSTVYMELSSLRSEDTAVYYCARSSRSSYYLWVLDLWGQGTTVTVSS
VL: AIQMTQSPSSLSASVGDRVTITCRASQGVSTEIAWYQQKPGKAPKLLIYAASSLQSGVPSRFSGSGSGTDFTLTISSLQPEDFATYYCQQFNSYPITFGQGTRLEIK
B2: jlv1011 (RO6D8-jlv1011) 抗ROR1单克隆抗体 (antibody, V domains shown)
VH: QVQLVQSGAEVKKPGASVKVSCKASGYTFTSKYYHWVRQAPGQGLEWMGIINPTSGSTSYAQKFQGRVTMTRDTSTSTVYMELSSLRSEDTAVYYCARDSSRYSGWYFDLWGQGTTVTVSS
VL: B1 VL with M4L, F91Y, N92Y, S93G, T97A

Target: 重组小鼠ROR1 IgG2-Fc融合蛋白 (R&D系统公司, 目录号9910-RO-050) (mouse, UniProt Q9Z139 30-403)
Sequence (Q9Z139 30-403 limits assumed): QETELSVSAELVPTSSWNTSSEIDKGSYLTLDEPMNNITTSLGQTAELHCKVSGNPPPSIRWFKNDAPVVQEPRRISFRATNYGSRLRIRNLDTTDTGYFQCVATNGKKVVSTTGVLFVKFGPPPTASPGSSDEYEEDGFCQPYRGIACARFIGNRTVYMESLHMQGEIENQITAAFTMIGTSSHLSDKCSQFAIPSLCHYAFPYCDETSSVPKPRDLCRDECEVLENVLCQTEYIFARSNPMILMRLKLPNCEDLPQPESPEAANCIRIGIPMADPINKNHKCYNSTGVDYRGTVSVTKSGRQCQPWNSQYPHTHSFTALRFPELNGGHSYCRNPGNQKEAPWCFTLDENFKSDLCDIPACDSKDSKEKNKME
Assay: ELISA, coated mouse ROR1 IgG2-Fc, antibody dilutions, anti-human IgG Fc-HRP

Row | Binder | binding result
1 | B1 | binds
2 | B2 | binds
